Source: patent US20200206198A1, “CFTR CHANNEL ACTIVATOR FOR USE IN THE TREATMENT AND/OR PREVENTION OF GLUTEN SENSITIVITY CONDITIONS” (priority 2017, published 2020)

Target: T1, TG2 (Homo sapiens, UniProt P21980)
T1 construct: Immunoprecipitations of endogenous proteins were performed on 500 μg of lysates from Caco-2 cells; host or cells: Caco-2
T1 sequence (P21980 1-687): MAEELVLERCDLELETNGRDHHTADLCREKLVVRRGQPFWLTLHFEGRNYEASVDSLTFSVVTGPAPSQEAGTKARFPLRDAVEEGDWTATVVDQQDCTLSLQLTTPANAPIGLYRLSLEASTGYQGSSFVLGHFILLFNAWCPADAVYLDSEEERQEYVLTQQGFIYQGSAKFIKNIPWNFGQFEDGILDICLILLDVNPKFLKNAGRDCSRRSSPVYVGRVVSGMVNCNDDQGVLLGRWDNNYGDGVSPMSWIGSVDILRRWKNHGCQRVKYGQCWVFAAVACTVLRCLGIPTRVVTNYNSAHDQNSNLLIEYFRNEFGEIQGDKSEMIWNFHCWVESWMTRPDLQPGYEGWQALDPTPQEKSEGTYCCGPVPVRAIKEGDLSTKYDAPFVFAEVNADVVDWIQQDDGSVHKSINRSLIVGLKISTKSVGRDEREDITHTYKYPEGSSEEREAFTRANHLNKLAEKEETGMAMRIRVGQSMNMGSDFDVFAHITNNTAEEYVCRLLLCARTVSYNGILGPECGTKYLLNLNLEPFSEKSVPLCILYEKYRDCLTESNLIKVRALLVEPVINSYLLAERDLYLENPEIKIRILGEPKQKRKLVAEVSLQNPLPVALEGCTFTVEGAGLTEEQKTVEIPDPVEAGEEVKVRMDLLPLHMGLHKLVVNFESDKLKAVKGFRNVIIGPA
Assay: TG2 interaction and TG2 activity in Caco-2 cells
Type: cell-based
Description: Human colon adenocarcinoma-derived Caco-2 and T84 cells were obtained from the ATCC. Cells were maintained in T25 flask in Modified Eagle Medium (MEM) for Caco-2, or Ham's F12+DMEM (1:1) for T84, supplemented with 10% fetal bovine serum (FBS), 2 mM Glutamine+1% Non Essential Amino Acids (NEAA) and the antibiotics penicillin\streptomycin (100 units/ml) (all reagents from Lonza) (Luciani, A., et al. 2010. Cells were grown in Transwells (Corning, 3470 or 3460) under the normal condition (Luciani, A., et al. 2012). Briefly, 8×10^4 or 5×10^5 cells were seeded in 6.5-mm diameter or 12-mm diameter, respectively, and grown until the RT reached 800 to 1,200 Ω·cm2. Transwells with a pore size of 0.4 μm were used. Medium in both the apical and basolateral chambers was changed every other day. Cells were treated with 20 μg/ml of either α-gliadin peptide P31-43 or […] or scrambled PGAV or modified P31-43 either biotin-tagged or not, for different time point (from 1 h short challenge up to 24 h). Cells were also treated with 50 or 100 μg/ml of P57-68 or PGAV peptides for 3 h. Caco-2 or T84 cells were also treated with: CFTR potentiators VX-770 (10 μM) or VX-532 (20 μM) (Selleck chemicals) or Genistein (10 μM) (Sigma-Aldrich) or in presence or absence of CFTR inhibitor172 (CFTRinh172, 20 μM) or 3-methyl-adenine (3-MA, 20 μM) (Calbiochem), Z-DON (20 nM, Zedira) or BAPTA-AM (10 μM, Calbiochem).
The whole lysate or membrane fraction proteins of cell lines and mice intestine homogenates were obtained from treated and untreated cells or mice as described. The equal amount of protein were resolved by SDS-PAGE gel and blotted with antibodies against: SQSTM1, (Sigma Aldrich, 108k4767) 1:1000, PPARγ (Santa Cruz Biotechnology, sc7273) 1:500, BECN1 (Abcam, ab58878) 1:1000, CFTR clone M3A7 (Abcam, ab4067) 1:500, phospho-ERK1/2 (php42/44, Cell Signaling Technology, #91101) 1:1000, UVRAG (Santa Cruz Biotechnology sc8215) 1:1000, NHERF-1 (BD, 611161) 1:1000, EZRIN (BD, 610603) 1:1000, hVps34 (SigmaV9764) 1:300, biotin (Abcam, ab1227) 1:2000, PKAr2a (BD, 610625) 1:500, Ubiquitin (Cell Signaling clone P4D1, #3936) 1:1000, CHIP (Calbiochem PC711) 1:500, Caspase-1 p10 (M-20) (Santa Cruz Biotechnology, sc-514) 1:200, NLRP3 (Abcam, ab4207), 1:500, IDO1 (monoclonal; cv152) 1:1000^[80], used as primary antibodies. Normalization was performed by probing the membrane with anti-β-actin (Cell Signaling, #4970) 1:1000, anti-Gapdh (Sigma-Aldrich, G8795) 1:1000 and anti-flottilin (Abcam ab15148) 1:1000 antibodies. Immunoprecipitations of endogenous proteins were performed on 500 μg of lysates from Caco-2 cells. The proteins were incubated for 12-18 h at 4° C. with 10 ug\ml of specific antibody followed by the addition of Protein A/G-agarose beads for 4 h at 4° C. The beads were then washed three times with lysis buffer and Laemmli's sample buffer was added to the samples. The membranes were then blotted with: CFTR clone CF3 (Abcam, ab2784) 1:1000, TG2 (clone CUB7402; NeoMarkers) 1:1000, CHIP (Calbiochem PC711) 1:500, Ubiquitin (Cell Signaling clone P4D1 3936), isopeptide (Abcam 422) 1:1000, PKAR2 (BD 610625) 1:500.
For detection of complex with biotnylated-P31-43 or immune-complex of glutamime-lysine bonds, the beads were resolved in non-reducing and non-denaturating conditions, and then blotted with Streptavidin-HRP (Sigma 52438) 1:3000 or anti-biotin (Abcam ab2103) 1:2500 and anti-isopeptide (Abcam 422) 1:1000.
TG2 enzymatic activity in Caco-2, treated as described above, was detected: 1) by incubating unfixed sections with biotin-mono-dansylcadaverine (MDC, 10 mM, Molecular Probe) for 1 h at room temperature and then stained with Alexa-fluor488-Streptavidin, as previously described (JI2008/2009) or 2) or by incorporation of 5(biotinamido)pentylamines (BAP) into protein substrates. For BAP-incorporation, 2 mM BAP (Soltec Ventures, B110) were directly added into the medium together with the indicated treatments. […]

Molecule | TG2-mediated glutamine-lysine bonds in CFTR immunoprecipitates (Caco-2 cells) | covalent interaction with TG2 (Caco-2 cells, shortly upon challenge) | interaction between TG2 and CFTR by co-immunoprecipitation (cells incubated with peptide) | effect on P31-43-induced interaction of TG2 and CFTR (Caco-2 cells) | effect on P31-43-induced TG2 activation (Caco-2 cells preincubated with VX-770) | impact on TG2-mediated transamidation reactions (Caco-2 cells pulsed with Ca2+)
α-gliadin peptide LGQQQPFPPQQPY (SEQ ID 1), induces an enterocyte stress response (P31-43 sequence of alpha-gliadin) | induced the formation of TG2-mediated glutamime-lysine bonds | covalently interacted with TG2 | stimulated the interaction between TG2 and CFTR |  |  | 
CC(C)(C)c1cc(C(C)(C)C)c(NC(=O)c2c[nH]c3ccccc3c2=O)cc1O [VX-770, N-(2,4-di-tert-butyl-5-hydroxyphenyl)-4-oxo-1,4-dihydroquinoline-3-carboxamide] |  |  |  | abolished the P31-43-induced interaction of TG2 and CFTR | negated the capability of P31-43 5 to induce TG2 activation | has no impact on TG2mediated transamidation reactions
